B1: hSIRPα.50A (antibody, V domains shown)
VH: QVQLQQSGPELVKPGASVRISCKASGFTFTNYYIHWVKQRPGQGLEWIGWIYPGNVNTKYNEKFKAKATLTADKSSTTAYMQLSSLASEDSAVYFCARPTIIATDFDVWGAGTTVTVSS
VL: DIVMTQSHKFMSTSVGDRVNITCKASQGVGTAVGWYQQKPGQSPRLLIYWASTRHTGVPDRFTGSGSGTDFSLAISNVQSEDLADYFCQQYSTYPFTFGGGTNLEIK
notes: light chain constant domain not tied; also called mouse hSIRPα.50A; hSIRPα.50A.mIgG1
B2: hSIRPα.40A (antibody, mouse IgG1, kappa, V domains shown)
VH: EVQFQQSGTVLARPGTSVKMSCKASGSTFTSYWMHWVKQGPGQGLQWIGAIYPVNNDTTYNQKFKGKAELTVVTSTSTAYMEVSSLTNEDSAVYYCTRSFYYSLDAAWFVYWGQGTLVTVSA
VL: DIQMTQSPSSLSASLGERVSLTCRASQDIGSRLNWLQQEPDGTIKRLIYATSSLDSGVPKRFSGSRSGSDYSLTISGLESEDFVDYYCLQYASSPFTFGGGTKLEINR
notes: mouse antibody, full chains without signal peptide; also called mouse hSIRPα.40A

Tests used:
[1] = target: T1, human SIRPα variant 1 (human, UniProt P78324 31-504); experiment: CELISA, CHO-K1 transfectants, domain exchange study
T1 construct: full length ORF on transfected CHO-K1 or HEK293 cells; entry includes the signal peptide; also called hSIRPαV1; SIRPαV1
From the text: (§1) Based on the fold of SIRPα, the extracellular region can be subdivided into three separate domains: the Ig-like (immunoglobulin-like) V-type (IgV), Ig-like C1-type (IgC1), and Ig-like C2-type (IgC2) domain. The IgV domain is also known as the ligand-binding N-terminal domain of SIRPα (which binds to CD47). The human SIRPαV1/β1 mutants were designed on the basis of the full length hSIRPαV1 sequence (SEQ ID NO: 33) and each individual Ig-like domain was substituted for the equivalent domain of human SIRPβ1 (SEQ ID NO: 37). The cDNAs encoding the constructs, hSIRPα-VβC1αC2α (SEQ ID NO: 55), hSIRPα-VαC1βC2α (SEQ ID NO: 57), and hSIRPα-VaC1αC2β (SEQ ID NO: 59) were synthesized (GeneArt) and subcloned into the pCI-neo vector. Binding of hSIRPα.50A to the exchange mutants was tested using CELISA. To this end, CHO-K1 cells were transiently transfected, using Lipofectamine 2000, with the pCI-neo vectors encoding hSIRPαV1, hSIRPαV2, hSIRPβ1, hSIRPα-VβC1αC2α, hSIRPα-VαC1βC2α, and hSIRPα-VαC1αC2β, respectively. The transfected cells were cultured at 37° C., 5% CO₂ and 95% humidity in medium (DMEM-F12 (Gibco) with 5% New Born Calf serum (Biowest) and Pen/Strep (Gibco)) until confluent. Subsequently, cells were trypsinized and seeded in 96-well flat-bottom tissue culture plates and cultured at 37° C., 5% CO₂ and 95% humidity in culture medium until confluent. Then, culture medium was removed and cells were incubated for 1 hour at 37° C., 5% CO₂ and 95% humidity with hSIRPα.50A and anti-hSIRPα clone SE5A5 antibodies. Next, cells were washed with PBS-T and incubated for 1 hour at 37° C., 5% CO₂ and 95% humidity with goat-anti-mouse IgG-HRP conjugate (Southern Biotech). After that, cells were washed three times with PBS-T and anti-hSIRPα immunoreactivity was visualized with TMB Stabilized Chromogen (Invitrogen). Reactions were stopped with 0.5 M H₂SO₄ and absorbances were read at 450 and 610 nm.

[2] = target: T2, human SIRPα variant 2 (human, UniProt P78324 31-504); experiment: as above
T2 construct: full length ORF on transfected CHO-K1 cells; also called hSIRPαV2; SIRPαV2
From the text: as §1

[3] = target: T3, hSIRPα-VαC1βC2α (human, UniProt P78324 31-504); experiment: as above
T3 construct: domain exchange mutant
T3 chain: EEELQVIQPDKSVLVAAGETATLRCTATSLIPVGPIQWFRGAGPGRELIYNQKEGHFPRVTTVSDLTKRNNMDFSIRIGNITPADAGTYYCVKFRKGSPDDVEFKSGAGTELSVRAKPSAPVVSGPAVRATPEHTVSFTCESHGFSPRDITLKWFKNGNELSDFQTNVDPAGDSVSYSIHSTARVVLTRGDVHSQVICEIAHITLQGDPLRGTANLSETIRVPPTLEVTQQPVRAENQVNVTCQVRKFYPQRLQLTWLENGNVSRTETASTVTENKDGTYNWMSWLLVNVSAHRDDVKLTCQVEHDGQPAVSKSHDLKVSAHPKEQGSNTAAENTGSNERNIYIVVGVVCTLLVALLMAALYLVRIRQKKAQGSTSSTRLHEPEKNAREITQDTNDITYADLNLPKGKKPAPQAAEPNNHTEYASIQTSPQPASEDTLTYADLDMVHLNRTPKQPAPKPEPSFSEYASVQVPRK
From the text: as §1

[4] = target: T4, hSIRPα-VαC1αC2β (human, UniProt P78324 31-504); experiment: as above
T4 construct: domain exchange mutant
T4 chain: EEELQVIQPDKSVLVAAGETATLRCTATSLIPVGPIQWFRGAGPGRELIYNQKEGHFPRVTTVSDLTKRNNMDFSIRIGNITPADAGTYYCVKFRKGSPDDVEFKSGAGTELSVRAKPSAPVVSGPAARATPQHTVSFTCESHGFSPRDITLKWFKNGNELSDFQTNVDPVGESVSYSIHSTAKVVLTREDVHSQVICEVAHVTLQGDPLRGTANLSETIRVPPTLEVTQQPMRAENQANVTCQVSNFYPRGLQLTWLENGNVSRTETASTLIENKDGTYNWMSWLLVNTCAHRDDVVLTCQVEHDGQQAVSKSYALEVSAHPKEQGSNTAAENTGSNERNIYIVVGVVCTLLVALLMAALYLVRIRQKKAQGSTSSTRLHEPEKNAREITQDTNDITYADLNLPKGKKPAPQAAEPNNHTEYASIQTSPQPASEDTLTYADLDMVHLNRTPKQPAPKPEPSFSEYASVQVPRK
From the text: as §1

[5] = target: T1, human SIRPα variant 1; experiment: flow cytometry, CHO-K1.hSIRPαV1 stable cells
Protocol: Binding of the parental and humanized antibodies to hSIRPα was assessed by flow cytometry using the CHO-K1.hSIRPαV1 stable cell line. CHO-K1.hSIRPαV1 cells were seeded in 96-well round bottomed tissue culture plates and incubated for 40 minutes with the humanized hSIRPα.40A antibody variants (20 μg/mL and dilutions thereof) in PBS/1% BSA at 4° C. […] After this labeling procedure, cells were washed two times, resuspended in PBS/1% BSA, containing 0.1 μg/mL DAPI (BioLegend), and analysed by flow cytometry on the FACSVerse (BD Biosciences). Data were processed and analysed with FlowJo V10 software (FlowJo, LLC).
Target sequence in this assay (P78324 31-504 limits assumed, change not shown): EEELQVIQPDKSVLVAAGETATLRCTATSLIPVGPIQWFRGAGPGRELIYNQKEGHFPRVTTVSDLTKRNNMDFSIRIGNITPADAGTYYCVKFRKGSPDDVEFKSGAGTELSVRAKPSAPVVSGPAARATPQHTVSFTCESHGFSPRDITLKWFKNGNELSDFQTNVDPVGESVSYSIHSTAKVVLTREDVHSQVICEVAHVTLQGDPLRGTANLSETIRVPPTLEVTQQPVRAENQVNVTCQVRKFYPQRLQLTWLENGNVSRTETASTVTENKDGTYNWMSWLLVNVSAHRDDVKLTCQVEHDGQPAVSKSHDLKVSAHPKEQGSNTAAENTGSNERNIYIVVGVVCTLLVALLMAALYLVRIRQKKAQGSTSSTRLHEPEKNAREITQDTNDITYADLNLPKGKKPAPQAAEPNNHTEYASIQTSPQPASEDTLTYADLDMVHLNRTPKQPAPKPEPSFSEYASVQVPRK

Binder | EC50 [1] [nM] | EC50 [2] [nM] | EC50 [3] [nM] | EC50 [4] [nM] | EC50 [5] [nM]
B1 | 0.321 | 0.215 | 0.345 | 0.408 | –
B2 | – | – | – | – | 0.022

— US20180312587A1 (ADURO BIOTECH HOLDINGS EUROPE B V, published 2018)
